Test results from PMC5651008, “The Copper Homeostasis Transcription Factor CopR Is Involved in H2O2 Stress in Lactobacillus plantarum CAUH2”.

Target: T1, CopR (CopRHis6) (Lactobacillus plantarum CAUH2, UniProt F9UU50 1-142)
T1 sequence: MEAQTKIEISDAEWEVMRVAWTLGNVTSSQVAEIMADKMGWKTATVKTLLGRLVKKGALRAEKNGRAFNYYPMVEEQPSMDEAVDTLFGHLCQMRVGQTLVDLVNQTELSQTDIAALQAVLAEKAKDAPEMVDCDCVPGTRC
Assay: EMSA; no Cu2+ added; 2.5 ug CopRHis6, 20 fmol probe; 20 uL: 1x LightShift binding buffer, 50 ng/uL poly(dI-dC), 2.5% glycerol, 0.05% NP-40, 5 mM MgCl2, 20 fmol probe, 2.5 ug CopRHis6; pH, salt and temperature not
Details: protein: recombinant; tags: C-terminal His6; chain copies: 2; label: 3' biotin; blunt

B1: copB promoter probe (EMSA copB-F/-R) (dsDNA)
DNA 1: GTGTTTTTCTTGACTTTTATCGTCTACAATTGTAAACTTTAGCCATAAATTACAGATGTAGACAAT
DNA 2: ATTGTCTACATCTGTAATTTATGGCTAAAGTTTACAATTGTAGACGATAAAAGTCAAGAAAAACAC
binding result: binds
